How the values were obtained:
[1] = target: Scytonema hofmannii TnsB transposase (type V-K CRISPR-associated transposon) (Scytonema hofmannii (UTEX 2349)); assay: SEC-MALS; shTnsB mixed with the reconstituted strand-transfer complex (STC) DNA; the high MW peak at 358.7 kDa holds the STC DNA and shTnsB
[2] = target: Scytonema hofmannii TnsB transposase (type V-K CRISPR-associated transposon) (Scytonema hofmannii (UTEX 2349)); assay: cryo-EM structure; 40 uM shTnsB with 10 uM STC DNA in 50 mM HEPES pH 7.5, 300 mM NaCl, 5 mM MgCl2, 1 mM TCEP, 30 min at 37 C; post-catalytic strand-transfer complex, 2.46 A
[3] = target: T1, shTnsB (Scytonema hofmannii UTEX 2349, UniProt PDB:8AA5_1 1-596); assay: EMSA; 5 mM MgCl2; four bands, three sites expected; 50 mM HEPES pH 7.5, 300 mM NaCl, 5 mM MgCl2, 1 mM TCEP, 37 °C, 30 min; 6% DNA retardation gel; conditions: protein: recombinant; tags: C-terminal His6 (TEV treatment, tag removed); chain copies: 4; blunt
T1 sequence: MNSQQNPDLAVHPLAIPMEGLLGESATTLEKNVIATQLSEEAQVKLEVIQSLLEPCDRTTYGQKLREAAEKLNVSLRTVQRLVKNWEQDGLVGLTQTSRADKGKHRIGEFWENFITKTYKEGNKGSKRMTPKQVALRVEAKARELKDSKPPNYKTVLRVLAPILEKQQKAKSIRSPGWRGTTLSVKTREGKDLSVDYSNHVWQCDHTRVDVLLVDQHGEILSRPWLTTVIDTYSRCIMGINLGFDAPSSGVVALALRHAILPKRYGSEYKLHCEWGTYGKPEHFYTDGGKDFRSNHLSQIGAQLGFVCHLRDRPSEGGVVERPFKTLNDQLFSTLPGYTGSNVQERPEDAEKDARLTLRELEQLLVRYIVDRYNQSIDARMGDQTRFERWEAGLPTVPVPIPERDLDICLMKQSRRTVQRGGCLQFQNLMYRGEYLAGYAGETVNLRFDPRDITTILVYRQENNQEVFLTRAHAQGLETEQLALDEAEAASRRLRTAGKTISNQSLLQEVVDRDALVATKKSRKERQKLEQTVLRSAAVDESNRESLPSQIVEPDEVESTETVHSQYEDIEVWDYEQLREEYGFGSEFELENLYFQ

[4] = target: T1, shTnsB; assay: cryo-EM structure (2.4 Å); 5 mM MgCl2; TnsB tetramer; 50 mM HEPES pH 7.5, 300 mM NaCl, 5 mM MgCl2, 1 mM TCEP, 37 °C, 30 min; 6% DNA retardation gel; conditions: protein: recombinant; tags: C-terminal His6 (TEV treatment, tag removed); chain copies: 4; six strands: 1:2 1:3 (RE arm), 4:5 4:6 (LE arm); the arms pair through the 5 nt target between the insertion sites (1:4); 5' polyA overhangs on strands 2 and 5

Molecule: Scytonema hofmannii TnsB transposase (type V-K CRISPR-associated transposon) (enzyme)
- stoichiometry N [1]: 4
- stoichiometry N [2]: 4

B1: LE (dsDNA)
DNA 1: ATTATATTGATGACATTTAATTTGTCATCAATTAATTAAGCAACGCTGATGGGTCACGACGACAATTAAATAGTCACAATGACATTAATCTGTCACCGACGACAGATAATTTGTCACTGTACACTACGCCTTTTGTGG
DNA 2: CCACAAAAGGCGTAGTGTACAGTGACAAATTATCTGTCGTCGGTGACAGATTAATGTCATTGTGACTATTTAATTGTCGTCGTGACCCATCAGCGTTGCTTAATTAATTGATGACAAATTAAATGTCATCAATATAAT
- binding result [3]: binds

B2: STC DNA (RE_Target, RE_polyA, Target_1, LE_Target, LE_polyA, Target_2) (structured_DNA)
DNA 1: ATAAGGATTTTACTGATGACAATAATTTGTCACAACGACATATAATTAGTCACTGTACACGTAGAGACGTAGCAATGCT
DNA 2: AAAAAAAAAAAAAAATGTACAGTGACTAATTATATGTCGTTGTGACAAATTATTGTCATCAGTAAAATCCTTAT
DNA 3: AGCATTGCTACGTCT
DNA 4: AATTAAATAGTCACAATGACATTAATCTGTCACCGACGACAGATAATTTGTCACTGTACACTACGCCTTTTGTGGAGATG
DNA 5: AAAAAAAAAAAAAAATGTACAGTGACAAATTATCTGTCGTCGGTGACAGATTAATGTCATTGTGACTATTTAATT
DNA 6: CATCTCCACAAAAGG
- binding result [4]: binds

Source: article PMC9527255, “Structure of the TnsB transposase-DNA complex of type V-K CRISPR-associated transposon”
